Experimental findings from paper PMC2660415 are described below.

Experiment in all cases: SEC; gel filtration on Superdex 200 (AKTA-FPLC) followed by SDS-PAGE; P proteins released from GST by thrombin; P particles form a peak at ~830 kDa and the P dimer at ~69 kDa
For assay [1], the target named is MOH (GII-5) norovirus P domain with C-terminal … peptide, wild type (P particle / P dimer) (norovirus strain MOH (GII-5)).
Assay [2] has as its target Norwalk virus (GI-1) P domain with N-terminal CNGRC peptide, wild type (P particle / P dimer) (Norwalk virus (GI-1)).
For assay [3], the target named is VA207 (GII-9) norovirus P domain with C-terminal … peptide, wild type (P particle / P dimer) (norovirus strain VA207 (GII-9)).
Assay [4] deals with Boxer (GI-8) norovirus P domain with C-terminal … peptide, wild type (P particle / P dimer) (norovirus strain Boxer (GI-8)).

As for “MOH (GII-5) norovirus P domain with C-terminal … peptide, wild type (P particle / P dimer) (domain or fragment)”, the efficiency of P particle formation in assay [1] amounted to 80%.
For “Norwalk virus (GI-1) P domain with N-terminal CNGRC peptide, wild type (P particle / P dimer) (domain or fragment)”, the efficiency of P particle formation in assay [2] stood at 70%.
“VA207 (GII-9) norovirus P domain with C-terminal … peptide, wild type (P particle / P dimer) (domain or fragment)”: the efficiency of P particle formation in assay [3] was 90%.
Consider “Boxer (GI-8) norovirus P domain with C-terminal … peptide, wild type (P particle / P dimer) (domain or fragment)”, for which, in assay [4], the efficiency of P particle formation was found to be 80%.
